In PMC8594078:
Like-named read-outs stand apart in the source and are kept apart here.

Experiments:
[1] = molecular target: T1, biotinylated human ACE2 (Acrobiosystems EP-105 kit) (Homo sapiens, UniProt Q9BYF1 18-740); assay: competition ELISA
[2] = molecular target: T1, biotinylated human ACE2 (Acrobiosystems …); assay: competition ELISA; remark: listed apart in the source

T1 sequence (Q9BYF1 18-740): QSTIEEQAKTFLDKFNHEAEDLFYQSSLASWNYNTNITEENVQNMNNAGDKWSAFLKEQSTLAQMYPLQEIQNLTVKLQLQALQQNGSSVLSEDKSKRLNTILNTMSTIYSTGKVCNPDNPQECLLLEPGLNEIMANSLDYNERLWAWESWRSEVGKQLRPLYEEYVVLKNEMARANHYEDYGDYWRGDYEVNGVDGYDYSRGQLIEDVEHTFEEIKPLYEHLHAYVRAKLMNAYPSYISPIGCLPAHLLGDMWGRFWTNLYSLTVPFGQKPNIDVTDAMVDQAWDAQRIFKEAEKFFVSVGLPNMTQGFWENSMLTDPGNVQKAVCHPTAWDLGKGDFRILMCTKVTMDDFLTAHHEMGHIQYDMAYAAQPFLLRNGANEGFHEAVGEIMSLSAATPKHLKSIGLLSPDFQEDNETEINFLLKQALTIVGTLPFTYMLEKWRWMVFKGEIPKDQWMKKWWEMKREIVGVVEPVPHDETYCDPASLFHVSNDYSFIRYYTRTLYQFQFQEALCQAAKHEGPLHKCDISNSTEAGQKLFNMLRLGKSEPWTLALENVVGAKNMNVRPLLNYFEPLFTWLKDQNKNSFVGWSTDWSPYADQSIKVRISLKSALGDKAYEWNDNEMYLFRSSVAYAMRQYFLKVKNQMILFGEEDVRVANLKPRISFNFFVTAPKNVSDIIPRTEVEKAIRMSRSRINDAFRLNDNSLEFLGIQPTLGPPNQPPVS

Row | Binder | IC50 [1] | IC50 [2]
1 | Apt 14 (ssDNA) DNA: ATAGTCCCTGGCGTGCTTCCGCGAGAGTTCGACATTCCCGAAAGTACGACGAAAGTCCAGAGCAGGTACGGTGTCA | 47 nM | 132 nM
2 | Apt 6 (ssDNA) DNA: ATAGTCCCTGGCGTGCTTGACAGCAACACGAACACTGAACGTTCTTAACAAGCCTGGCAGAGCAGGTACGGTGTCA | 33 nM | 35 nM
